Laboratory results: article PMC2853111
Where two headings read alike, the source gives them in different places.

B1: consensus ERE probe (ERE-EMSA) (dsDNA)
DNA 1: GGATCTAGGTCACTGTGACCCCGGATC
DNA 2: GATCCGGGGTCACAGTGACCTAGATCC
B2: B68 ERE probe (3' ERE, MIRb) (dsDNA)
DNA 1: TTTCTGGGTCACACCGACCTGAGCT
DNA 2: AGCTCAGGTCGGTGTGACCCAGAAA
B3: D66 ERE probe (5' ERE, MIRb) (dsDNA)
DNA 1: CACCCAGGTCAGTCTGACATCTAAG
DNA 2: CTTAGATGTCAGACTGACCTGGGTG

How the values were obtained:
[1] = biological target: T1, estrogen receptor alpha (rERα, NR3A1) (UniProt P03372 1-595); assay: EMSA
T1 sequence (P03372 whole entry): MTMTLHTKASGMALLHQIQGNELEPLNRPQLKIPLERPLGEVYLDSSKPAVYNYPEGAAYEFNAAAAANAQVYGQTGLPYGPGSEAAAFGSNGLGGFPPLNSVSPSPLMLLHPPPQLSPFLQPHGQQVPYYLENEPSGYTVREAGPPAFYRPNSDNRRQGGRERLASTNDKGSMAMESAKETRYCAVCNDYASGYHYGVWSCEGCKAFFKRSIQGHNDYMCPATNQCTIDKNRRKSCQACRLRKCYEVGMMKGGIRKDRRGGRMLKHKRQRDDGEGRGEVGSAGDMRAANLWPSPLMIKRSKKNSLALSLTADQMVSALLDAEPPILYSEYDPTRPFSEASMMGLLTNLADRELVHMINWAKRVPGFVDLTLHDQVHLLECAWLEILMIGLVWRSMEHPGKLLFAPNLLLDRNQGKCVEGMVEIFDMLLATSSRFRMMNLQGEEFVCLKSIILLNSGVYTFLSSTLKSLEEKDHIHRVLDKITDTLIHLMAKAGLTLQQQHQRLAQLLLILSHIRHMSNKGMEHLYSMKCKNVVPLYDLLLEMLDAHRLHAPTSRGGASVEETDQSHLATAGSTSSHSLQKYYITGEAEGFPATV

[2] = biological target: T1, estrogen receptor alpha (rERα, NR3A1); assay: EMSA; remark: listed apart in the source

Row | Binder | binding result [1] | binding result [2]
1 | B1 | binds | 
2 | B2 |  | binds
3 | B3 |  | binds
